Results taken from paper PMC5922973, “Topoisomerase VI senses and exploits both DNA crossings and bends to facilitate strand passage” (eLife, 2018).

Key:
[1] = target: the molecule itself; test: SEC; topo VI co-expressed in E. coli and co-purified through His6-Top6B (Ni2+, SP/Q, TEV, Ni2+), then Sephacryl-300 HR gel filtration in 20 mM HEPES-KOH pH 7.5, 300 mM KCl, 10% glycerol; heterotetramer peak
[2] = target: the molecule itself; test: FRET or BRET; bulk FRET between Alexa555 and Alexa647 on Cys180 of the ATP gate; 200 nM topo II, 0 or 100 uM bp supercoiled DNA, 100 mM KCl, 10 mM Tris-HCl pH 7.9, 5 mM MgCl2, 0 or 1 mM AMPPNP

B1: Methanosarcina mazei topoisomerase VI subunit A (Top6A) (enzyme)
chain: MEGEKGSKTRKGDALAREKLLEIAEKIYNQFEEEVVPSVSLPSRTKANLEYSDESDVWVYGDRESERSAKTVKGAFQLLKTTYATDFLINEHLARNRGSTLRELYYISEGWDYAKFKEQGESDRLIEDLEILTSLQREYFHMRPEEDGATMFGPIEITEQTKRGERNIHCQKDVGEGGYQIPFNVENIEFQKHDASMIIAIETGGMYARLMENGFDEAYNAILVHLKGQPARSTRRIIKRMNEELGIPVAVFTDGDPWSYRIYASVAYGAIKSAHLSEFMATPAAKFLGLQPSDIVEYELSTDKLTEQDVSALRSELSDPRFESDYWKEQIQLQLDIGKKAEQQAFAGKGLDFVTEVYLPNRLKEMGMI
notes: Top6A of Methanosarcina mazei topo VI; the Top6A gene cloned into a polycistronic expression vector (Corbett et al., 2007); Two Top6A and two Top6B form the A2B2 heterotetramer; also called MmTop6A; A subunit of topo VI
binding result [1]: binds

B2: S. cerevisiae topoisomerase II 1-1177 cyslite-180C, Alexa555/Alexa647-labeled (enzyme, Saccharomyces cerevisiae, UniProt P06786 1-1177, looked up)
chain: MSTEPVSASDKYQKISQLEHILKRPDTYIGSVETQEQLQWIYDEETDAMIEKNVTIVPGLFKIFDEILVNAADNKVRDPSMKRIDVNIHAEEHTIEVKNDGKGIPIEIHNKENIYIPEMIFGHLLTSSNYDDDEKKVTGGRNGYGAKLCNIFSTEFILETADLNVGQKYVQKWENNMSICHPPKITSYKKGPSYTKVTFKPDLTRFGMKELDNDILGVMRRRVYDINGSVRDINVYLNGKSLKIRNFKNYVELYLKSLEKKRQLDNGEDGAAKSDIPTILYERINNRWEVAFAVSDISFQQISFVNSIATTMGGTHVNYITDQIVKKISEILKKKKKKSVKSFQIKNNMFIFINCLIENPAFTSQTKEQLTTRVKDFGSRAEIPLEYINKIMKTDLATRMFEIADANEENALKKSDGTRKSRITNYPKLEDANKAGTKEGYKCTLVLTEGDSALSLAVAGLAVVGRDYYGAYPLRGKMLNVREASADQILKNAEIQAIKKIMGLQHRKKYEDTKSLRYGHLMIMTDQDHDGSHIKGLIINFLESSFPGLLDIQGFLLEFITPIIKVSITKPTKNTIAFYNMPDYEKWREEESHKFTWKQKYYKGLGTSLAQEVREYFSNLDRHLKIFHSLQGNDKDYIDLAFSKKKADDRKEWLRQYEPGTVLDPTLKEIPISDFINKELILFSLADNIRSIPNVLDGFKPGQRKVLYGCFKKNLKSELKVAQLAPYVSEATAYHHGEQSLAQTIIGLAQNFVGSNNIYLLLPNGAFGTRATGGKDAAAARYIYTELNKLTRKIFHPADDPLYKYIQEDEKTVEPEWYLPILPMILVNGAEGIGTGWSTYIPPFNPLEIIKNIRHLMNDEELEQMHPWFRGWTGTIEEIEPLRYRMYGRIEQIGDNVLEITELPARTWTSTIKEYLLLGLSGNDKIKPWIKDMEEQHDDNIKFIITLSPEEMAKTRKIGFYERFKLISPISLMNMVAFDPHGKIKKYNSVNEILSEFYYVRLEYYQKRKDHMSERLQWEVEKYSFQVKFIKMIIEKELTVTNKPRNAIIQELENLGFPRFNKEGKPYYGSPNDEIAEQINDVKGATSDEEDEESSHEDTENVINGPEELYGTYEYLLGMRIWSLTKERYQKLLKQKQEKETELENLLKLSAKDIWNTDLKAFEVGYQEFLQRDAEAR
modifications: Alexa Fluor 555 C2 maleimide or Alexa Fluor 647 C2 maleimide on the native cysteine 180
notes: Saccharomyces cerevisiae topoisomerase II, C-terminal truncation coding for residues 1-1177 (Schmidt et al., 2012), with four cysteines changed to alanine; also called ScTop2^ΔCTR-cyslite-180C; topo II; not shown: His6, N-terminal, cleaved
binding result [2]: binds
